No end group written: not given here. Where only a bound is given, the exact number is not on record here.

For this test, the target named is human PAC1 receptor with 3 hemagglutinin (HA) tags, expressed in Chinese Hamster Ovary (CHO) cells (human), P41586. Description: cell-based or functional assay.
human PAC1 receptor with 3 hemagglutinin (HA) tags, expressed in Chinese Hamster Ovary (CHO) cells (human), P41586, sequence (P41586 21-468): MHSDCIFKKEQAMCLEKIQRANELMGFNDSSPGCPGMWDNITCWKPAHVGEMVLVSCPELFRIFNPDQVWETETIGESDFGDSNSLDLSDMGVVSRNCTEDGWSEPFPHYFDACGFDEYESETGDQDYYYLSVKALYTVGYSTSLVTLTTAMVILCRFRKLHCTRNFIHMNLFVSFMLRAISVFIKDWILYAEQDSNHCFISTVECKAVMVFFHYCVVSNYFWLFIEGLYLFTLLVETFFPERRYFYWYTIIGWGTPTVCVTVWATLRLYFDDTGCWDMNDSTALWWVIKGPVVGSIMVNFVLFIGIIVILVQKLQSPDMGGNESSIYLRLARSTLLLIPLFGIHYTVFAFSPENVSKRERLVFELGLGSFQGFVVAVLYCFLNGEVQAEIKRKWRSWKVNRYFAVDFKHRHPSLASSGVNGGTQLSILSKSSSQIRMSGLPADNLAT

Consider HSDGIFTDSYSRYRKQMAVKKYLAAVL-NH2 [PACAP1-27], for which the EMax (%), calcium flux (FLIPR), agonist mode, PAC1-CHO cells was found to be 100%.

For the molecule FTDSYSRYRKQMAVKKYLAAVLGKRYKQRVKNY-NH2 [PACAP6-38], the IC50 (nM), antagonist mode (variable concentration) versus 5 nM PACAP1-27, calcium flux (FLIPR), PAC1-CHO cells is greater than 333 nM; the IMax (%), antagonist mode (variable concentration) versus 5 nM PACAP1-27; ( )=% inhibition at highest concentration was determined as 78.8%; the pA2 (nM), antagonist mode (fixed concentration), Gaddum/Schild EC50 shift of PACAP1-27 curves, calcium flux (FLIPR), PAC1-CHO cells came out at 201 nM.
